According to patent publication US20070249808A1 (priority 2000, published 2007):

Test system: CD3+ Vβ+ T cells of peripheral blood lymphocytes (PBL)
Test: T-cell enrichment assay with HtTA 4 cells transfected with bicistronic constructs
Format: cell-based, human
Conditions: PBL from a healthy donor; 9 days of specific stimulation; FIG. 18

B1: pCDL-HERV WΔ120 aa: N-terminal 120 amino acid fragment of HERV-W ENV (amino acids 1 to 120, including signal peptide), expressed from a bicistronic cassette (protein)
chain: APPPCRCMTSSSPYQEFLWRMQRPGNIDAPSYRSLSKGTPTFTAHTHMPRNCYHSATLCMHANTHYWTGKMINPSCPGGLGVTVCWTYFTQTGMSDGGGV
Question: B1 was tested. Which “expansion of Vβ17+ T-cells” value did it give?
Answer: no expansion
